test: label from the status in PepcDB records

Q: For “MTKKVMIKGDIVDDQTAGFYQFFGMPAVSPSGVADILNDDSGDDDDDGDDEALEVDIASNGGDVFAASEIYTMLKNYAGNVTVNIQGLAASAASVIAMAGDHINISPTAQIMIHKAWSQPAGNADDLEHEASVLNGIDQSIASAYEAKTGMDQADLLQLMANETWLTASDAVDKGFADEIMFANDQQLQPVNAISHIPPKSAVNKLMNLIYKADKDKAKPSKKENTTNGQSAELRNSKLAILFEKNQKEAN”, which protein production is on record?
A: failed

Q: Which protein production does the source give for “MTKPLILASQSPRRKELLDLLQLPYSIIVSEVEEKLNRNFSPEENVQWLAKQKAKAVADLHPHAIVIGADTMVCLDGECLGKPQDQEEAASMLRRLSGRSHSVITAVSIQAENHSETFYDKTEVAFWSLSEEEIWTYIETKEPMDKAGAYGIQGRGALFVKKIDGDYYSVMGLPISKTMRALRHFDIRA” here?
A: not failed

Q: With “MTKPMIQIALDQTNLTDAVAVASNVASYVDVIEVGTILAFAEGMKAVSTLRHNHPNHILVCDMKTTDGGAILSRMAFEAGADWITVSAAAHIATIAACKKVADELNGEIQIEIYGNWTMQDAKAWVDLGITQAIYHRSRDAELAGIGWTTDDLDKMRQLSALGIELSITGGIVPEDIYLFEGIKTKTFIAGRALAGAEGQQTAAALREQIDRFWP” as the sequence, how does the protein production read?
A: not failed

Q: With “MTKPSRPDAPGDGRPRRLPGVARCRRDAAGHPPAHRLRWLQLLIWLVPMLAALVSIGLVAGQVRGHGPAITLGFQDGEGIEPGKTPVRYNDVDIGMVTAVRLSTDLSRVLVTVQLNQEAADFATHGTRFWIVRPRAGMSGASGLGTLLSGTYIGADSGGSHEPETQFTGLENPPVVSLRQQGARFVLRGPSLGSVETGSPVYYRHVEVGQVTGTALDKDGAGVTIDVFIEAPYHRYVGRDTQWRHASGLGLRLDAAGLRVNAESFQTMLLGGIAFQPSPGQPAGDAVPDGTVFGLQSGDLDAADGPDGKPSTVVMHFDQSLHGLSVGAAVDFRGVQLGEVTNVGVAFDPKTHTFVMPVTLNLYPDRLGQAFRASSEYGDAAAGKALLRTLVARGLRGQLRTGNLLTNQLYVALDMFPNAPPVQLDLNGTLIALPTIPNTLDDLQAQVADLAKTLDRVPLDQLGTHLGQRLDNARRLFALTDAQLAPQARATLAAARQAFDAAQAIAQSPLLRPADLSRVREQLGQTLRALDTLTDTVAQHPESLVWGPAVDTRTAQSP” as the sequence, how does the protein production read?
A: failed

Q: Which protein production does the source give for “MTKQFHCVTVGNPNAGKSTLFNALTGANQQVGNWSGVTVEKKTGHFTLNGADVYLTDLPGIYDLLPAGNSCDCSLDEQIAQQYLAEQRVDGIINLVDATNIERHLYLTAQLRELSIPMVVVLNKIDAAIKRGICVDLTKMSQELGCPVIGVCSRDPADVAKVQAQVLDLLQGRVSEAPLLLDYDKQIEAGVQLLCRKDPNLSRGRALAMLGNGSGCGSCKNAQLQDEVNTCTQQIAQQGHDIEVMVATTRFNFVERVFQSSVKADGFLTLSDKLDKLVLHPVLGIPVFLFVMYLMFMFSINIGSAFIDFFDVFAGALLVDHFGALLTNIGAPAWVVTILAGGVGQGIQTVSTFIPVIAALFLGLSILESSGYMARAAFVVDGLMRRIGLPGKAFVPMIVGFGCSVPAIMATRTLGSERERIVTGMMAPFMSCGARLPVYALFAAAFFPDSGQNLVFLLYVIGIFAAIGTGLLLRSTLLPGTSSAVVMELPSYELPKFKAVMVRTGKRTKSFILGAGKTIVLVVTLLNFINAIGVDGSFGHEDSQASLLSVASQKVTPIFAPMGIEQDNWPATVGIITGIFAKEAVVGTLNSLYTNATPEGSELTPLADSFNEALATIPANLFGLDLEDPLKLSVGDVSNTEVAAETQGVATSTFSALQSGFTTKVAAFSYLLFILLYTPCVAAMGALVNEFGTRWATFAATWTFALAYGSATVVYQAATFAAHPLQSSLWIGFFLVALVMFYLWLKRKGRRTQQIIPGVRIITE” here?
A: failed

Q: With “MTKTALVLGTVATLAVASVAAPAPAEARNGIGPFIGGLAAGALIAGVASNAYAYGPGYGYYGGGPYYGGGPYYGYAPRYVGYYGGPAYYGGGYGWGGPRYYRPRPVYYGYRSYYRPYRGGYYGAPVIRAGYGPGWGGHRHWHHHRHW” as the sequence, how does the protein production read?
A: failed

Q: With “MTKTFKTLDDFLGTHFIYTYDNGWEYEWYAKNDHTVDYRIHGGMVAGRWVTDQKADIVMLTEGIYKISWTEPTGTDVALDFMPNEKKLHGTIFFPKWVEEHPEITVTYQNEHIDLMEQSREKYATYPKLVVPEFANITYMGDAGQNNEDVISEAPYKEMPNDIRNGKYFDQNYHRLNK” as the sequence, how does the protein production read?
A: not failed

Q: Which protein production does the source give for “MTKTLVIIAHPDMARSRVNAAWAEALRRAGDITLRDLSALYPDGMIDGAVERSLLEAHDRIILQFPLTWYSCPPILSAWQIAILTRGWAYGPGGRALRLKTLGVALSTGSNGRDYQPDGRYGRTLEDVTVPFELMARHTGMHYLPPFTLTGVRECDDAAVAASARAYLDHVRTAKPRILASGRDDDRARTVYPLEAGAR” here?
A: failed

Q: With “MTKVNPYAAGARGLCPHCGEGYLFDGFLKVAPRCEACGFELGKHETGDGAATFVILIAGAICAFGALFSMFAWNWPVWVSLVVWLPAVVAISLGLMRPAKGLMVAAQIAQKASEAGRDHV” as the sequence, how does the protein production read?
A: failed

Q: For “MTLAALCQGVLERLDPRQPGRQLVALSGAPGSGKSTLSNPLAAALSAQGLPAEVVPMDGFHLDNRLLEPRGLLPRKGAPETFDFEGFQRLCHALKHQERVIYPLFDRARDIAIAGAAEVGPECRVAIIEGNYLLFDAPGWRDLTAIWDVSIRLEVPMADLEARLVQRWLDHGLNHDAAVARAQGNDLANARAIEAARLPADLTWPQA”, which protein production is on record?
A: not failed

Q: Which protein production does the source give for “MTLATRTVILPGGLQATLVHQPQADRAAALARVAAGSHHEPSRFPGLAHLLEHLLFYGGERYQDDDRLMGWVQRQGGSVNATTLARHSAFFFEVAADALADGVARLQEMLQAPLLLREDIQREVAVIDAEYRLIQQHEPSRREAAVRHAASAPAAFRRFQVGSADALAGDLAALQAALGDFHRTHYVARRMQLWLQGPQSLEALGELAARFAAGLAAGEPPPPAPPLRLGEFTALQLAVSSQPALWRCPLIALSDNVTLLREFLLDEAPGSLMASLRQRRLAGDVALNWLYQDRYLGWLALVFASDRPEEVDRQITHWLQALQQTTPEQQQHYYQLSRRRFQALSPLDQLRQRAFGFAPGAPPAGFADFCAALQAAPSVSLACQTVSPGEPVATQGFSLPLSRWRRRPESDPALAFAFYPQAAGDLVAKCPEKAAPLLHLPLPEEPPRLLLRPPFYCSPDQAEGLARGEQLRPLLAALRHAGGHGEWHLFDGSWQLTLQLPEPGRRPEAILQAILRQLALPVASLTPPPESIAIRHLMAQLPERLGTSGHQKGWLAALAGGSAEDAQWVARQLSLITAPVNPPMPAPAPCRRGVERLVYPGGDTALLVFIPLPDGASLAALRLLAQHCEPLFFQRLRVEQQIGYVVSCRYQRVADRDGLLMALQSPDRRAGELLRCGKDFLRQLAPMDEATFRPLQQRLAAQNRASRPPEARALSALRQEYGLPELTPQAVDALRVAEVADLAREMTRRRRRWQVLFTTGD” here?
A: failed

Q: For “MTLDPTPALSALRSGDFRTVQKLARRALKLAKGDPGWLNLAAIAESGLGRPKAALPHFQLALKLAPDFHDARRNLAQTLVILGRLDEAERHLQQLTGTNPQDAEAWALLSQAAMGRGDGDAALAAADRYVDLRPGQARGLMLRATLHGRLGDEAAALADLQQAQMAEPDNVDLLIALSLPLARADHPGAAIDVARRAVELAPRHIPARLTLAMRHVEQGDSDAAKAMYHRVLEIAPDQAEALEQLAHLNDAAENQRLAPQVQTALKTAEAGSLDKAQLHFALARIAAQSADDDGLARNLTRANATMARLMPYDAGADTRLSEALMARFAPGADCDGPGDGPAPFYVLGLPRSGTSLTEAVLGAHPVVHPLGERIAPGRLLAPLIDGGLPFDAQARAAFRKGEAASLPALPEGTRFYTDKMPENYRLVGFLLAARGDARVIHLRRDPRDVALSLWQAHLAGSALNYAYDLGAMAHRFNLYARMMAHWRAIFPDRILDLPYEELVADVTRASQRLAEWLGLVWDPEMARPERSTSQILTLSASQLRQPVHTRSVGKWRKHEAMLAPFIAGLDPGLWPELGQSGI”, which protein production is on record?
A: failed

Q: With “MTLEIRPAVPADAEQILAFIIELADYERARHEVVTDVEGIRRSLFAEGSPTRALMCLSEGRPIGYAVYFYSYSTWLGRNGIYLEDLYVTPEYRGVGAGRRLLRELAREAVANDCGRLEWSVLDWNQPAIDFYRSIGALPQDEWVRYRLDGEALRKMAE” as the sequence, how does the protein production read?
A: not failed

Q: Which protein production does the source give for “MTLELLQAQAQNCTACRLMEGRTRVVFGEGNPDAKLMIVGEGPGEEEDKTGRPFVGKAGQLLNRILEAAGIPREEVYITNIVKCRPPQNRAPLPDEAKICTDKWLLKQIELIAPQIIVPLGAVAAEFFLGEKVSITKVRGKWYEWHGIKVFPMFHPAYLLRNPSRAPGSPKHLTWLDIQEVKRALDALPPKERRPVKAVSQEPLF” here?
A: not failed

Q: For “MTLGSQHSPLFALVQETLRKRILSGAYAQGERLVEGDLAEEMGVSRIPVREALRALAAAGLVRIEPRRGASVASLSPEHARDIVEVRATLEALNARLAAQRRNPQQVADMDRAIRDGAHACERGDTAALVEQNRHFHELLGGVSTNAVLQDLMRSLRDRTALLFARNSVTRAADILDEHAGILQAVTAGDADLASLLAARHVHNAAQWYFERPVDRKAVAADTD”, which protein production is on record?
A: failed

Q: With “MTLPQTMKAAVVHAYGAPLRIEEVKVPLPGPGQVLVKIEASGVCHTDLHAAEGDWPVKPPLPFIPGHEGVGYVAAVGSGVTRVKEGDRVGIPWLYTACGCCEHCLTGWETLCESQQNTGYSVNGGYAEYVLADPNYVGILPKNVEFAEIAPILCAGVTVYKGLKQTNARPGQWVAISGIGGLGHVAVQYARAMGLHVAAIDIDDAKLELARKLGASLTVNARQEDPVEVLQRDIGGAHGVLVTAVSNSAFGQAIGMARRGGTIALVGLPPGDFPTPIFDVVLKGLHIAGSIVGTRADLQEALDFAGEGLVKATIHPGKLDDINQILDQMRAGQIEGRIVLEM” as the sequence, how does the protein production read?
A: not failed

Q: With “MTLSIAHLGPPGTYAEQAAVLYVNWLTKSTGDEATLSPYPTISQSLHAVADGQAHLAVVPVENSIEGSVTTTLDALWQLDSLRIQLALVLPIVHTLISCASGLDKIETVYSHPQALAQCQGWLERFLPTVQIVPSNSTTEALQRLEQETTTAAIASSRAAQLYNLPILATGINDYPENCTRFWVVSQGEADAGYQTSKVPTSHTSLAFSMPANTPGALVKPLQIFAQLGINLSRIESRPTKRSLGEYLFFMDLEADVKESQMQSALAELTIHTEILKILGAYNVLPIGAFT” as the sequence, how does the protein production read?
A: failed

Q: With “MTLSSTTAPLDQPIPQATADAFCALTGDDQWIHIDPARAEAEGLAGGDTVLPGALLLSLAVGGLGKALGYPEGTRSWQRSYERVRFLRPAPVGSRLRLEARESRRRPAGTGREVVVANVSLYSDLVEAGPVMEGCFTSLLEVAVQPDTAE” as the sequence, how does the protein production read?
A: failed

Q: For “MTLSTINPMKKSRIDNIHHTQILFFSDENQIDQEAPYYDALLDLEKDYPEQIDKMKVYDKKEGWEDEIETVPTLMVVDQRHVVVKIEGCVKKKEDIIKPLQHVLSKLEHHHHHH”, which protein production is on record?
A: not failed

Q: For “MTLTDISLAQAFISIPQDVIALDLSNNLLGSKSCVDLLVNIADCIPAGVTSLDLSSNGLRLTQVSLVTPKHVTSLNLCFNPLHEISIDGLEWLKDSLAHIQIIYLSYDMVNNMSREQRQAFRAVIPNIQTIILVDKNGKEIGPSHTAKIANLISELGGGNPEVPSLEHHHHHH”, which protein production is on record?
A: failed

Q: With “MTLTKITAGKDDPDTGFAIATYNIHSCLGTDGAFRPDRVAQAIRALDADVIGLQEVGWALRGPSGFDQFAFLERETGYTVIPGLVRHHANAHFGNAILSRHPVESVAPLDLSLPYHSPRGGIDARIRVKGRSVRLINVHLGLIPLERRIQIRRIGLRLLDGWRGPALVCGDLNHWRRTSPAMQRLHRLLPGGVTGQTYPSALPTMMFDRILATGDLHLENHQVIRTEGTRVASDHLPLMAWFRFEGADVLSEDAA” as the sequence, how does the protein production read?
A: failed

Reference: a protein production outcome set (Wang et al. 2014)
